B1: His6-tagged human BicD2-CTD (aa 715–804) [human] / GST-tagged mouse Nesprin-2 (aa 6123–6421) [mouse] (parent complex)
chain 1: YENEKAMVTETMMKLRNELKALKEDAATFSSLRAMFATRCDEYITQLDEMQRQLAAAEDEKKTLNSLLRMAIQQKLALTQRLELLELDHE
chain 2: RLWQKFLDDYSRFEDWLKSAERTAACPNSSEVLYTNAKEELKRFEAFQRQIHERLTQLELINKQYRRLARENRTDTASKLKQMVHEGNQRWDNLQKRVTAILRRLRYFTNQREEFEGTRESILVWLTEMDLQLTNVEHFSESDAEDKMRQLNGFQQEITLNTNKIDQLIVFGEQLIQKSEPLDAVLIEDELEELHRYCQEVFGRVSRFHRRLTSHTPGLDDEKEASENETDIEDPREIQADSWRKRRESEEPTSPQSLCHLVPPALGHERSGCETPVSVDSIPLEWDHTGDVGGSSSHE

Variants of: B1
Assay: GST-pulldown, SDS-PAGE band intensity; n = 3; parent: 1; read off a plot

Variant | ratio to parent
chain 1 YENEKAMVTETMMKLRNELKALKEDAATFSSLRAMFATRCDEYITQLDEMQRQLAAAEDEKKTLNSLLAMAIQQKLALTQRLELLELDHE [chain 1 R69A] | ~0.47
chain 1 YENEKAMVTETMMKLRNELKALKEDAATFSSLRAMFATRCDEYITQLDEMQRQLAAAEDEKKTLNSLLRMAIQQKLALTQRLCLLELDHE [chain 1 E83C] | ~0.47

Variants of: B1
Assay: as above
Remark: another data set of the same source

Variant | ratio to parent
chain 2 RLWQKFLDDYSRFEDWLKSAERTAACPNSSEVLYTNAKEELKRFEAFQRQIHERLTQLELINKQYRRLARENRTDTASKLKQMVHEGNQRWDNLQKRVTAILRRLRYFTNQREEFEGTRESILVWLTEMDLQLTNVEHFSESDAEDKMRQLNGFQQEITLNTNKIDQLIVFGEQLIQKSEPLDAVLIEDELEELHRACQEVFGRVSRFHRRLTSHTPGLDDEKEASENETDIEDPREIQADSWRKRRESEEPTSPQSLCHLVPPALGHERSGCETPVSVDSIPLEWDHTGDVGGSSSHE [chain 2 Y197A] | ~0.32
chain 2 RLWQKFLDDYSRFEDWLKSAERTAACPNSSEVLYTNAKEELKRFEAFQRQIHERLTQLELINKQYRRLARENRTDTASKLKQMVHEGNQRWDNLQKRVTAILRRLRYFTNQREEFEGTRESILVWLTEMDLQLTNVEAFSESDAEDKMRQLNGFQQEITLNTNKIDQLIVFGEQLIQKSEPLDAVLIEDELEELHRYCQEVFGRVSRFHRRLTSHTPGLDDEKEASENETDIEDPREIQADSWRKRRESEEPTSPQSLCHLVPPALGHERSGCETPVSVDSIPLEWDHTGDVGGSSSHE [chain 2 H138A] | ~0.29
chain 2 RLWQKFLDDYSRFEDWLKSAERTAACPNSSEVLYTNAKEELKRFEAFQRQIHERLTQLELINKQYRRLARENRTDTASKLKQMVHEGNQRWDNLQKRVTAILRRLRYFTNQREEFEGTRESILAWLTEMDAQLTNVEHASESDAEDKMRQLNGFQQEITLNTNKIDQLIVFGEQLIQKSEPLDAVLIEDELEELHRYCQEVFGRVSRFHRRLTSHTPGLDDEKEASENETDIEDPREIQADSWRKRRESEEPTSPQSLCHLVPPALGHERSGCETPVSVDSIPLEWDHTGDVGGSSSHE [chain 2 V124A, chain 2 L131A, chain 2 F139A] | ~0.04
chain 2 RLWQKFLDDYSRFEDWLKSAERTAACPNSSEVLYTNAKEELKRFEAFQRQIHERLTQLELINKQYRRLARENRTDTASKLKQMVHEGNQRWDNLQKRVTAILRRLRYFTNQREEFEGTRESILVWLTAMDLQLTNVEHFSESDAEDKMRQLNGFQQEITLNTNKIDQLIVFGEQLIQKSEPLDAVLIEDELEELHRYCQEVFGRVSRFHRRLTSHTPGLDDEKEASENETDIEDPREIQADSWRKRRESEEPTSPQSLCHLVPPALGHERSGCETPVSVDSIPLEWDHTGDVGGSSSHE [chain 2 E128A] | ~0.81
